From US20100105569A1 (AbbVie / Abbott, published 2010)

What was measured:
[1] = biological target: T1, human IL-12 (biotinylated) (human, UniProt P29459 23-219; P29460 23-328, biotinylated (site and subunit not stated)); assay: mRNA-scFv selected with 50 nM IL-12, bead capture, % of input 35S counts recovered
T1 construct: also called hIL-12
T1 sequence (looked up) 1: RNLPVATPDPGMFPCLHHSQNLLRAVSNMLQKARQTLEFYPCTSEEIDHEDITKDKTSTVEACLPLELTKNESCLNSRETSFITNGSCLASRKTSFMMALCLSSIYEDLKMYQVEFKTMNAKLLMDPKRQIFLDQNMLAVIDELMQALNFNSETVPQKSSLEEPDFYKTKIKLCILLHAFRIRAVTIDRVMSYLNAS
T1 sequence (looked up) 2: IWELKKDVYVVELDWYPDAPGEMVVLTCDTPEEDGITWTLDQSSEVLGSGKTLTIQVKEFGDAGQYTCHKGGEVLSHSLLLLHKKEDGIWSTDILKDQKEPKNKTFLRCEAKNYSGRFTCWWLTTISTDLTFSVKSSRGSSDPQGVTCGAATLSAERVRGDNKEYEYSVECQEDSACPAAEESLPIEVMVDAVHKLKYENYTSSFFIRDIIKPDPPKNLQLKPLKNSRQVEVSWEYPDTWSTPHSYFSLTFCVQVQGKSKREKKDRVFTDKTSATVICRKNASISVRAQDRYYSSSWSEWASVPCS

[2] = biological target: biotinylated HA tag peptide; assay: free scFv selected with 50 nM HA; translated without PDI
[3] = biological target: biotinylated HA tag peptide; assay: mRNA-scFv (ligated protein) selected with 50 nM HA; translated with PDI
[4] = biological target: biotinylated HA tag peptide; assay: mRNA-scFv selected with 50 nM HA; PDI: No, RT: No (same value as the 33rd table, row 10, column 5)
[5] = biological target: biotinylated HA tag peptide; assay: mRNA-scFv (ligated protein) selected with 50 nM HA; translated without PDI
[6] = biological target: biotinylated HA tag peptide; assay: free scFv selected with 50 nM HA; translated with PDI
[7] = biological target: biotinylated HA tag peptide; assay: mRNA-scFv selected with 50 nM HA; PDI: Yes, RT before selection with DTT
[8] = biological target: biotinylated HA tag peptide; assay: mRNA-scFv selected with 50 nM HA; PDI: Yes, RT: No (same value as the 33rd table, row 11, column 5)
[9] = biological target: biotinylated HA tag peptide; assay: mRNA-scFv selected with 50 nM HA; PDI: Yes, RT before selection without DTT

B1: Y61 scFv short (Y61-scCL-short) (scFv)
scFv: MQVQLVQSGGGVVQPGRSLRLSCAASGFTFSSYGMHWVRQAPGKGLEWVAFIRYDGSNKYYADSVKGRFTISRDNSKNTLYLQMKSLRAEDTAVYYCKTHGSHDNWGQGTMVTVSSGGGGSGGGGSGGGGSSYVLTQPPSVSGTPGQRVTISCSGGRSNIGSNTVKWYQQLPGTAPKLLIYGNDQRPSGVPDRFSGSKSGTSASLAITGVQAEDEADYYCQSYDRGTHPALLFGTGTKLTVLGQPKAAPSVTLDYKDDDDKASAI
notes: Human anti-hIL-12 scFv, in vitro translated with 35S-methionine; tested as free protein or as mRNA-scFv (ligated protein), as said under assay; also called Y61-CL-short
Percent of Recovery, IL-12 (50 nM selection) [1]: 21.1%

B2: 17/9 scFv (spacer form not stated) (scFv)
scFv: EVQLVESGGGLVQPGRSLRLSCAASGFTFDDYAMHWVRQAPGKGLDWVSAITWNSGHIDYADSVEGRFAVSRDNAKNALYLQMNSLRPEDTAVYYCTKASYLSTSSSLDNWGQGTLVTVSSGGGGSGGGGSGGGGSDIQMTQSPSSLSASIGDRVTITCRASQGIRNYLAWYQQKPGKAPKLLIYAASTLQSGVPSRFSGSGSGTDFTLTISSLQPEDVATYYCQKYNSAPYAFGQGTKVEIKR
% of Recovery, HA (50 nM) selection [2]: 3.3% | % of Recovery, HA (50 nM) selection [3]: 12.4% | % of Recovery, HA (50 nM) selection [4]: 2.3% | % of Recovery, HA (50 nM) selection [5]: 2.3% | % of Recovery, HA (50 nM) selection [6]: 30.5% | % of Recovery, HA (50 nM) selection [7]: 2% | % of Recovery, HA (50 nM) selection [8]: 12.4% | % of Recovery, HA (50 nM) selection [9]: 9.4%

B3: Y61-scGene3 (Y61 scFv Gene3) (scFv)
scFv: MQVQLVQSGGGVVQPGRSLRLSCAASGFTFSSYGMHWVRQAPGKGLEWVAFIRYDGSNKYYADSVKGRFTISRDNSKNTLYLQMKSLRAEDTAVYYCKTHGSHDNWGQGTMVTVSSGGGGSGGGGSGGGGSSYVLTQPPSVSGTPGQRVTISCSGGRSNIGSNTVKWYQQLPGTAPKLLIYGNDQRPSGVPDRFSGSKSGTSASLAITGVQAEDEADYYCQSYDRGTHPALLFGTGTKLTVLGQPKAAPSVTLPQPPVNAGGGSGGGSGGGSEGGGSEGGGSEGGGSEGGGSGGGSGSGDFDYEKMANANKGAMTENADENALQSDAKGKLDSVATDYDYKDDDDKASAI
notes: also called PF-y61scGene3
Percent of Recovery, IL-12 (50 nM selection) [1]: 8%

B4: Y61-scGene3pA (Y61 scFv Gene3PA) (scFv)
scFv: B3 scFv
Percent of Recovery, IL-12 (50 nM selection) [1]: 6.1%
